One assay concerns the target TREM2 F74D (human) (UniProt Q9NZC2). The assay can be described thus: BLI; biotinylated TREM2 WT and variants immobilised on SA biosensors; C1q 62.5 – 1000 nM in PBS with 0.1% BSA and 0.005% Tween-20; 1:1 kinetic fits.
The next assay has as its target TREM2 L71D (human) (UniProt Q9NZC2). Described as above.
In a further assay the target is TREM2 M41D (human) (UniProt Q9NZC2). The description is as above.
The target in a further assay is TREM2 R47H (human) (UniProt Q9NZC2). The description is as above.
Another assay has as its target TREM2 R62H (human) (UniProt Q9NZC2). Described as above.
Assay [1] has as its target TREM2 WT (human) (UniProt Q9NZC2). The description is as above.
Assay [2] has the same target. The experiment in a line: BLI; sequential competition: biotinylated TREM2 WT on SA biosensors, first ligand or no ligand at one concentration (500 nM apoE2, apoE4, oAβ42 or IL-34; 1000 nM C1q), buffer, then second ligand. A general note: In BLI a coated tip is dipped into the sample, and binding shifts an interference pattern.
Assay [3] deals with oAβ42 Aβ42 (Homo sapiens) (UniProt P05067). The note with it: cited from earlier work.
A further assay addresses C1q (Homo sapiens) (UniProt P02745). The experiment in a line: ELISA. The note with it: cited from earlier work. On the technique in general: An ELISA detects its analyte on a solid surface through an enzyme-linked reagent.

Chain of TREM2 (Q9NZC2 19-174): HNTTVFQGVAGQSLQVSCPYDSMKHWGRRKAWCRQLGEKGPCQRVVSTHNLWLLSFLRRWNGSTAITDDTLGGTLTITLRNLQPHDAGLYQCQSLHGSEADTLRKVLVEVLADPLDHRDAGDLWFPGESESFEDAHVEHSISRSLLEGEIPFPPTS
Chain of TREM2 WT (human) (Q9NZC2 19-174): as above
Chain of TREM2 R47H (human) (Q9NZC2 19-174 R47H): as the sequence (Q9NZC2 19-174) above, with R29H counted along it
Chain of TREM2 L71D (human) (Q9NZC2 19-230 L71D): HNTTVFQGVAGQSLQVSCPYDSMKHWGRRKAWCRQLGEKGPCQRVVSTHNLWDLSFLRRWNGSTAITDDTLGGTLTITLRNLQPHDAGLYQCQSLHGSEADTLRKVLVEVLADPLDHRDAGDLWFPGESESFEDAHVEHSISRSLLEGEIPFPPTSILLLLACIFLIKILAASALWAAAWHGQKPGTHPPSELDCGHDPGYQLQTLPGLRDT
Chain of TREM2 F74D (human) (Q9NZC2 19-230 F74D): as the sequence (Q9NZC2 19-230 L71D) above, with D53L, F56D counted along it
Chain of C1q (Homo sapiens) (P02745 23-245, chain 1 of 3): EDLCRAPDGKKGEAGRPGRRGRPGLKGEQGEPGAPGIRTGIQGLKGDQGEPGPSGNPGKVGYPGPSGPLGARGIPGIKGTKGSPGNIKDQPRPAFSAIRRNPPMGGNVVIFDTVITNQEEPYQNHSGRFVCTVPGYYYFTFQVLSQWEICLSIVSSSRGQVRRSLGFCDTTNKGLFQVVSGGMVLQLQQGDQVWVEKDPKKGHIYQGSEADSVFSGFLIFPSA
Chain of C1q (Homo sapiens) (P02746 28-253, chain 2 of 3, further chain): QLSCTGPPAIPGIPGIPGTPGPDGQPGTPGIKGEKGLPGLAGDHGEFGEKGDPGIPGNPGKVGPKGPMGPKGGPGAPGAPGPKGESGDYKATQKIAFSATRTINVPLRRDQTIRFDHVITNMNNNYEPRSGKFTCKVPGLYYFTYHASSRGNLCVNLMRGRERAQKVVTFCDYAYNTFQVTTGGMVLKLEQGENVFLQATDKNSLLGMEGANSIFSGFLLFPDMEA
Chain of C1q (Homo sapiens) (P02747 29-245, chain 3 of 3, further chain): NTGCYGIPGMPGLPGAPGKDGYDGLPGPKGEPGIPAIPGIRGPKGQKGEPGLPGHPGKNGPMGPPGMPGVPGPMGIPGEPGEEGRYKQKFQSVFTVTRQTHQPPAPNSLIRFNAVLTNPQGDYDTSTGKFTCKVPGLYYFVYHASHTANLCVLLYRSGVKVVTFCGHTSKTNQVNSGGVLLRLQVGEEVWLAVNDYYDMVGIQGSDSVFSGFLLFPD
Chain of TREM2 M41D (human) (Q9NZC2 19-230 M41D): as the sequence (Q9NZC2 19-230 L71D) above, with M23D, D53L counted along it
Chain of TREM2 R62H (human) (Q9NZC2 19-174 R62H): as the sequence (Q9NZC2 19-174) above, with R44H counted along it

The term Kd denotes the constant that tells how readily two partners part at equilibrium. Regarding complement C1q (complex), the Kd with TREM2 F74D (human) worked out at 110 nM; with TREM2 L71D (human), 58 nM; with TREM2 M41D (human) it was 2540 nM; in the assay with TREM2 R47H (human), 180 nM; in the assay with TREM2 R62H (human), 1660 nM; in the assay with TREM2 WT (human) [1] it was 650 nM. For the same substance, the percent decrease of apoE2 binding to TREM2 after pre-binding 1000 nM C1q with TREM2 WT (human) [2] was determined as 11.4%.
For the substance TREM2 (from UniProt Q9NZC2), the Kd in assay [3] is 526 nM; with C1q (Homo sapiens) it was 7.35 nM.
